According to patent publication US20160201045A1, “Endo-xylanase and Coding Gene and Use Thereof” (SHANGHAI INSTITUTES FOR BIOLOGICAL SCIENCES CHINESE ACADEMY …, priority 2013, published 2016):

Assays:
Type in all cases: biochemical
[1] = Standard enzymatic activity detection (DNS method) on birch xylan; settings: substrate 2% (w/w), pH7.0, 50, 10 minutes
Method: Enzymatic activity of the endo-1,4-β-xylanase was tested by a DNS method as follows:
10 g NaOH were weighed and dissolved in about 400 ml ddH2O. 10 g dinitrosalicylic acid, 2 g phenol, 0.5 g anhydrous sodium sulfite and 200 g potassium sodium tartrate tetrahydrate were weighed and dissolved in about 300 ml ddH2O. The two solutions were mixed, diluted to 1 liter and preserved in dark.
100 μl DNS were added into each of the above standard samples. The mixtures were subjected to boiled water bath for 5 minutes for developing color. Absorbance value at 540 nm was detected by a microplate reader. Standard sample 1 was a blank control. The absorbance value of the blank control was subtracted from that of each sample and then the standard curve was plotted.
(§1) In a 100 μl reaction system, birch xylan was added to a final concentration of 1% (w/w), and Na2HPO4/NaH2PO4 buffer (pH7.0) was added to a final concentration of 100 mM. A suitable amount of enzyme solution diluted by the abovementioned buffer was added to the reaction system for reaction at 50[…] for 10 minutes. 100 μl DNS were added to stop the reaction. For the control, 100 μl DNS were firstly added to the above reaction system before adding the enzyme solution. The reaction mixtures were subjected to a boiled water bath for 5 minutes to develop color. Absorbance value at 540 nm was detected by a microplate reader. After subtracting the absorbance value of the control from that of the sample, the enzymatic activity unit (U) was calculated based on the standard curve.
Definition of enzymatic activity unit (U): 1U refers to the amount of enzyme required for catalytically hydrolyzing xylan to produce 1 μmol xylose.
Definition of specific activity unit: enzymatic activity of 1 mg protein (U/mg).
Various substrates with a final concentration of 2% (w/w) were treated by a suitable amount of enzymes at pH7.0 and 50[…] for 10 minutes. Enzymatic activity was tested according to the above standard enzymatic activity detection steps. […] No detectable enzymatic activity was found for the other test substrates. […]

[2] = Detection on the optimum temperature
Method: as §1
Enzymatic activity was detected according the above standard enzymatic activity detection steps at pH 7.0 and a temperature in the range of 25-80° C. The optimum temperature of Xyl7 was in the range of 50-55° C., with an activity at 50[…] slightly higher than that at 55[…]. Thus, the specific activity value of the enzyme at 50[…] was used as a reference value and its relative activity was defined as 100%. The relative activity of the enzyme at each temperature was a ratio between the specific activity value of the enzyme at each temperature and the reference value.

[3] = Residual activity under feed additive conditions (acidic pH, 37° C.); settings: pH 4-5, 37° C., 15-60 minutes
Method: as §1
As a feed additive, xylanase is required to retain its enzymatic activity in a pH environment of about 4 due to the acidic environment in the stomach of livestock, such as pig, and retain its enzymatic activity in a pH environment of about 6 due to the weak acidic environment in the digestive tract of chicken. Therefore, Xyl7 was tested for its residual enzymatic activity after treated in pH4 or pH5 at a 37° C. bath for 15, 30, 45 and 60 minutes. The residual enzymatic activity was a ratio between the specific activity of the enzyme obtained after various treatments and that of the un-treated enzyme.

[4] = Thermal stability test of purified mutant proteins at 55° C. and 60° C.
Method: Enzymatic activity was tested according to the above standard enzymatic activity detection steps (enzymatic activity was tested after reacting at pH7.0, 50° C. for 10 minutes). The enzyme solution which was not subjected to heat treatment was used as a control. Its specific activity tested under pH 7.0, 50° C. was used as a reference value and its relative activity was defined as 100%. The relative activity of the treatment group was a ratio between the relative activity value obtained after storing at different temperatures for different times (treatment conditions) and the reference value. […] After storing at these temperatures for 45 min, the enzymatic activity decreased to be less than 50% of the maximum activity.
Transformants were picked up by sterile toothpick to a LB liquid culture containing antibiotic and IPTG (in a final concentration of 1 mM) contained within the wells of a 96-well plate and cultured overnight at 37° C. and 200 rpm. Thallus was collected by centrifugation. 100 ul buffers having the optimum reaction pH were added to re-suspend the thallus. […] Enzymatic activity was detected according to the DNS method. […] Then the enzymatic activity was detected. The residual enzymatic activity of the treatment group was calculated as a percentage of the enzymatic activity of the treatment group in relative to that of the control group. […]

B1: Xyl7: endo-1,4-β-xylanase of 505 amino acids, SEQ ID NO:2, from termite gut metagenome, expressed in E. coli with His tag (protein)
chain: MKKLIALSFIAAFFAPLFAQGPTWTTSTIQAYNGYDYELWNQNNAGTVSMKLTGDNGSGASAVGGTFTATWSNTQNVLFRSGKKWGSSSNQNHTQIGNMSINFAATWSSTDNVKMLGVYGWAYFTSANVPTKQENGTNASFSNQIEYYIIQDRGSYNPASGGTNAKKYGSATIDGIAYDFYVCDRINQPMLTGNGNFKQFFSVPQSASAHRTSGTISVSQHFNKWHELGMKMDGPLYEVAMKVESYTGSGSSNGSATVTKNLLTIGGTTPTPSSNSGGTTSSSSRASSSSRASSSSNAAVQATTCKTPLITYPTSTVPSDPYTACFKYTDDKCYVCKVENEGEFEGNMNTCGSGWVWDGTQIDNNLRDGYWYQEVPCPAGSSSSRSSSSSVAVSSSSRSSSSSVAASSSSRSSSSSASVSSSSEETPIRVLHTIPSKFRVRSLNNGALQIESNADVVLYLYDTKGKMAQKIEAPTGSSIVKLSVPAGIYIVRNVQTKEKLRVMVR
modifications: His tag; Intestinal tract metagenome of termite
In the case of B1, the “Specific Activity on birch xylan” value [1] is reported as 4700 ± 57 U/mg, the optimum temperature ([2]; pH 7.0, 25-80° C. tested) is reported as 50-55 °C and the “retained activity in the range of 30-60° C.” value ([2]; pH 7.0, % of the highest activity (50)) is reported as ≥ 50%. The “residual enzymatic activity in acidic environment” value [3] was “retain a sufficiently high enzymatic activity” and the “half life at 60° C.” value [4] was “less than 10 minutes”.
